Biological target: T1, biotinylated CRH (human and mouse, not fully specified; biotinylated, position not stated)
T1 construct: also called Biotin-CRH; biotin-labeled CRH
T1 peptide: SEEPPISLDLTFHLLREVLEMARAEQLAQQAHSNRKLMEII
Assay: Octet BLI, biotinylated CRH on SA sensor
Protocol: Octet® Red 96e was used for affinity measurement. Octet® running buffer was prepared by diluting kinetics buffer 10× (Fortebio, Cat #18-1105) in PBS according to the manufacturer's instructions. Two columns of SA sensors (Fortebio, Cat #18-5019) were hydrated in running buffer for 10 mins, one for ligand capturing and the other for reference. Antibodies were 2-fold diluted and added into a 96-well plate. […] After a 60-second baseline step, sensors were dipped into analyte and buffer wells successively, with the association and dissociation time of 180 seconds and 800 seconds, respectively. […] Signals of reference wells and reference sensors were subtracted by selecting “Double reference” before data fitting.

Row | Binder | Kd [nM] | koff [s⁻¹] | kon [M⁻¹ s⁻¹]
1 | PR005656 (antibody, human IgG1, kappa, V domains shown, PTM-removal variant of PR004290) VH: EVQLVESGGVLVQPGGSLRLSCAASGFTFSSYWMTWVRQAPGKGLEWVANIKQEGSEKYYVDSVKGRFTISRDNAKNSLFLQMNSLRAEDTAVYYCARTLIFDYWGQGTLVTVSS VL: DIVMTQSPLSLPVTPGEPASISCRSSQSLLHSTGYNSLEWYLQKPGQSPQLLIYLGSNRASGVPDRFSGSGSGTDFTLKISRVEAEDVGIYYCMQTLQTPITFGQGTRLEIKR | 0.0627 | 4.55e-05 | 726000
2 | PR006144 (antibody, human IgG1, kappa, V domains shown, PTM-removal variant of PR004290) VH: EVQLVESGGVLVQPGGSLRLSCAASGFTFSSYWMTWVRQAPGKGLEWVANIKQEGSEKYYVDSVKGRFTISRDNAKNSLFLQMNSLRAEDTAVYYCARTLIFDYWGQGTLVTVSS VL: DIVMTQSPLSLPVTPGEPASISCRSSQSLLHSTGYNPLEWYLQKPGQSPQLLIYLGSNRASGVPDRFSGSGSGTDFTLKISRVEAEDVGIYYCMQTLQTPITFGQGTRLEIKR | 0.0895 | 4.47e-05 | 499000
3 | PR006147 (antibody, human IgG1, kappa, V domains shown, PTM-removal variant of PR004290) VH: EVQLVESGGVLVQPGGSLRLSCAASGFTFSSYWMTWVRQAPGKGLEWVANIKQDASEKYYVDSVKGRFTISRDNAKNSLFLQMNSLRAEDTAVYYCARTLIFDYWGQGTLVTVSS VL: DIVMTQSPLSLPVTPGEPASISCRSSQSLLHSTGYHSLEWYLQKPGQSPQLLIYLGSNRASGVPDRFSGSGSGTDFTLKISRVEAEDVGIYYCMQTLQTPITFGQGTRLEIKR | 0.142 | 6.96e-05 | 489000
4 | PR006150 (antibody, human IgG1, kappa, V domains shown, PTM-removal variant of PR004290) VH: EVQLVESGGVLVQPGGSLRLSCAASGFTFSSYWMTWVRQAPGKGLEWVANIKQDSSEKYYVDSVKGRFTISRDNAKNSLFLQMNSLRAEDTAVYYCARTLIFDYWGQGTLVTVSS VL: DIVMTQSPLSLPVTPGEPASISCRSSQSLLHSTGYDSLEWYLQKPGQSPQLLIYLGSNRASGVPDRFSGSGSGTDFTLKISRVEAEDVGIYYCMQTLQTPITFGQGTRLEIKR | 0.102 | 5.66e-05 | 555000
5 | PR006146 (antibody, human IgG1, kappa, V domains shown, PTM-removal variant of PR004290) VH: EVQLVESGGVLVQPGGSLRLSCAASGFTFSSYWMTWVRQAPGKGLEWVANIKQDASEKYYVDSVKGRFTISRDNAKNSLFLQMNSLRAEDTAVYYCARTLIFDYWGQGTLVTVSS VL: DIVMTQSPLSLPVTPGEPASISCRSSQSLLHSTGYDSLEWYLQKPGQSPQLLIYLGSNRASGVPDRFSGSGSGTDFTLKISRVEAEDVGIYYCMQTLQTPITFGQGTRLEIKR | 0.109 | 4.84e-05 | 445000
6 | PR006151 (antibody, human IgG1, kappa, V domains shown, PTM-removal variant of PR004290) VH: EVQLVESGGVLVQPGGSLRLSCAASGFTFSSYWMTWVRQAPGKGLEWVANIKQDSSEKYYVDSVKGRFTISRDNAKNSLFLQMNSLRAEDTAVYYCARTLIFDYWGQGTLVTVSS VL: DIVMTQSPLSLPVTPGEPASISCRSSQSLLHSTGYHSLEWYLQKPGQSPQLLIYLGSNRASGVPDRFSGSGSGTDFTLKISRVEAEDVGIYYCMQTLQTPITFGQGTRLEIKR | 0.16 | 8e-05 | 500000
7 | PR006149 (antibody, human IgG1, kappa, V domains shown, PTM-removal variant of PR004290) VH: EVQLVESGGVLVQPGGSLRLSCAASGFTFSSYWMTWVRQAPGKGLEWVANIKQDASEKYYVDSVKGRFTISRDNAKNSLFLQMNSLRAEDTAVYYCARTLIFDYWGQGTLVTVSS VL: DIVMTQSPLSLPVTPGEPASISCRSSQSLLHSTGYSSLEWYLQKPGQSPQLLIYLGSNRASGVPDRFSGSGSGTDFTLKISRVEAEDVGIYYCMQTLQTPITFGQGTRLEIKR | 0.16 | 7.78e-05 | 487000
8 | PR005662 (antibody, human IgG1, kappa, V domains shown, PTM-removal variant of PR004290) VH: EVQLVESGGVLVQPGGSLRLSCAASGFTFSSYWMTWVRQAPGKGLEWVANIKQDASEKYYVDSVKGRFTISRDNAKNSLFLQMNSLRAEDTAVYYCARTLIFDYWGQGTLVTVSS VL: DIVMTQSPLSLPVTPGEPASISCRSSQSLLHSTGYQSLEWYLQKPGQSPQLLIYLGSNRASGVPDRFSGSGSGTDFTLKISRVEAEDVGIYYCMQTLQTPITFGQGTRLEIKR | 0.209 | 8.27e-05 | 396000
9 | PR006142 (antibody, human IgG1, kappa, V domains shown, PTM-removal variant of PR004290) VH: EVQLVESGGVLVQPGGSLRLSCAASGFTFSSYWMTWVRQAPGKGLEWVANIKQEGSEKYYVDSVKGRFTISRDNAKNSLFLQMNSLRAEDTAVYYCARTLIFDYWGQGTLVTVSS VL: DIVMTQSPLSLPVTPGEPASISCRSSQSLLHSTGYDSLEWYLQKPGQSPQLLIYLGSNRASGVPDRFSGSGSGTDFTLKISRVEAEDVGIYYCMQTLQTPITFGQGTRLEIKR | 0.123 | 4.08e-05 | 333000
10 | PR005657 (antibody, human IgG1, kappa, V domains shown, PTM-removal variant of PR004290) VH: EVQLVESGGVLVQPGGSLRLSCAASGFTFSSYWMTWVRQAPGKGLEWVANIKQDASEKYYVDSVKGRFTISRDNAKNSLFLQMNSLRAEDTAVYYCARTLIFDYWGQGTLVTVSS VL: DIVMTQSPLSLPVTPGEPASISCRSSQSLLHSTGYNSLEWYLQKPGQSPQLLIYLGSNRASGVPDRFSGSGSGTDFTLKISRVEAEDVGIYYCMQTLQTPITFGQGTRLEIKR | 0.0913 |  | 
11 | PR006145 (antibody, human IgG1, kappa, V domains shown, PTM-removal variant of PR004290) VH: EVQLVESGGVLVQPGGSLRLSCAASGFTFSSYWMTWVRQAPGKGLEWVANIKQEGSEKYYVDSVKGRFTISRDNAKNSLFLQMNSLRAEDTAVYYCARTLIFDYWGQGTLVTVSS VL: DIVMTQSPLSLPVTPGEPASISCRSSQSLLHSTGYSSLEWYLQKPGQSPQLLIYLGSNRASGVPDRFSGSGSGTDFTLKISRVEAEDVGIYYCMQTLQTPITFGQGTRLEIKR | 0.305 | 6.75e-05 | 222000
12 | PR006148 (antibody, human IgG1, kappa, V domains shown, PTM-removal variant of PR004290) VH: EVQLVESGGVLVQPGGSLRLSCAASGFTFSSYWMTWVRQAPGKGLEWVANIKQDASEKYYVDSVKGRFTISRDNAKNSLFLQMNSLRAEDTAVYYCARTLIFDYWGQGTLVTVSS VL: DIVMTQSPLSLPVTPGEPASISCRSSQSLLHSTGYNPLEWYLQKPGQSPQLLIYLGSNRASGVPDRFSGSGSGTDFTLKISRVEAEDVGIYYCMQTLQTPITFGQGTRLEIKR | 0.106 |  | 
13 | PR005658 (antibody, human IgG1, kappa, V domains shown, PTM-removal variant of PR004290) VH: EVQLVESGGVLVQPGGSLRLSCAASGFTFSSYWMTWVRQAPGKGLEWVANIKQDGSEKYYVDSVKGRFTISRDNAKNSLFLQMNSLRAEDTAVYYCARTLIFDYWGQGTLVTVSS VL: DIVMTQSPLSLPVTPGEPASISCRSSQSLLHSTGYQSLEWYLQKPGQSPQLLIYLGSNRASGVPDRFSGSGSGTDFTLKISRVEAEDVGIYYCMQTLQTPITFGQGTRLEIKR | 0.179 | 9.11e-05 | 509000
14 | PR006143 (antibody, human IgG1, kappa, V domains shown, PTM-removal variant of PR004290) VH: EVQLVESGGVLVQPGGSLRLSCAASGFTFSSYWMTWVRQAPGKGLEWVANIKQEGSEKYYVDSVKGRFTISRDNAKNSLFLQMNSLRAEDTAVYYCARTLIFDYWGQGTLVTVSS VL: DIVMTQSPLSLPVTPGEPASISCRSSQSLLHSTGYHSLEWYLQKPGQSPQLLIYLGSNRASGVPDRFSGSGSGTDFTLKISRVEAEDVGIYYCMQTLQTPITFGQGTRLEIKR | 0.0623 | 2.85e-05 | 457000

From patent US20260042834A1 (HBM ALPHA THERAPEUTICS, published 2026)
